± gives the uncertainty stated by the source.
B1: POU domain, class 5, transcription factor 1, residues 134 to 212; numbered along this chain, Q01860 (parent)
chain: EESQDIKALQKELEQFAKLLKQKRITLGYTQADVGLTLGVLFGKVFSQTTICRFEALQLSFKNMCKLRPLLQKWVEEAD
B2: Histone-lysine N-methyltransferase SETD2, residues 2382 to 2430; numbered along this chain, Q9BYW2 (parent)
chain: SPPKPKTIVLPPNWKTARDPEGKIYYYHVITRQTQWDPPTWESPGDDAS

Variants of: B1
Experiment: abundance fitness (aPCA) (normalised: wild type 0, dead -1); higher = more abundant; growth selection in yeast, the domain comes from the species named
Settings: Homo sapiens

Abundance fitness of substitutions, site by site:
V75: R -0.661 ± 0.25 | W -0.802 ± 0.39 | D -0.413 ± 0.3 | K -0.056 ± 0.31 | E -0.353 ± 0.48 | H -0.025 ± 0.36 | G -0.645 ± 0.29 | M -0.293 ± 0.23 | S -0.106 ± 0.24 | C -0.343 ± 0.26 | Q -0.206 ± 0.34 | P -0.203 ± 0.24 | A -0.815 ± 0.32 | T -0.299 ± 0.23 | I 0.056 ± 0.22
A78: P -0.549 ± 0.23 | T -0.014 ± 0.26 | R -0.289 ± 0.13 | V 0.216 ± 0.092 | G -0.304 ± 0.12 | C -0.36 ± 0.35 | Q 0.053 ± 0.27 | M -0.033 ± 0.14 | I 0.292 ± 0.24 | E -0.06 ± 0.23 | S -0.13 ± 0.16
D79: P 0.393 ± 0.19 | E -0.067 ± 0.21 | S -0.374 ± 0.22 | Y -0.505 ± 0.49 | T -0.122 ± 0.21 | V 0.111 ± 0.13 | C -0.509 ± 0.35 | R -0.187 ± 0.18 | G -0.312 ± 0.13 | A -0.741 ± 0.25
E77: K -0.074 ± 0.17 | G -0.124 ± 0.079 | D -0.107 ± 0.16 | A -0.124 ± 0.099 | Q 0.184 ± 0.12 | L -0.124 ± 0.12 | T -0.129 ± 0.19 | P -0.264 ± 0.17 | W 0.226 ± 0.076 | M 0.037 ± 0.17 | N 0.718 ± 0.33 | H 0.144 ± 0.35 | R -0.108 ± 0.078 | V -0.161 ± 0.12 | I -0.079 ± 0.23 | Y 0.096 ± 0.18
W74: G -0.158 ± 0.18 | D -0.447 ± 0.28 | E -0.138 ± 0.34 | F -0.131 ± 0.47 | V -0.264 ± 0.3 | R -0.734 ± 0.27
E76: M -0.017 ± 0.22 | V -0.434 ± 0.15 | G -0.644 ± 0.18 | W -0.425 ± 0.19 | K -0.133 ± 0.14 | D 0.003 ± 0.19 | F -0.155 ± 0.27 | Q -0.173 ± 0.26 | S -0.188 ± 0.15 | C -0.066 ± 0.19 | L -0.368 ± 0.15 | H -0.032 ± 0.32 | R -0.315 ± 0.095 | A -0.139 ± 0.13 | P -0.892 ± 0.39

Variants of: B2
Experiment: as above
Settings: Homo sapiens

Abundance fitness: each site, then its substitutions
K4: M -0.051 ± 0.076 | H -0.221 ± 0.059 | C -0.564 ± 0.13 | G -0.97 ± 0.074 | Q -0.541 ± 0.13 | L -0.293 ± 0.034 | P -0.386 ± 0.1 | V -0.573 ± 0.086 | T -0.275 ± 0.057 | W -0.798 ± 0.081 | I -0.154 ± 0.074 | E -0.908 ± 0.12 | Y -0.046 ± 0.086 | R -0.532 ± 0.057 | S 0.007 ± 0.037 | D -0.927 ± 0.14 | A -0.836 ± 0.058 | N -0.144 ± 0.091 | F -0.41 ± 0.12
P3: V 0.444 ± 0.066 | R 0.274 ± 0.054 | F 0.197 ± 0.12 | T 0.155 ± 0.075 | Y 0.335 ± 0.051 | D 0.371 ± 0.12 | S 0.281 ± 0.049 | W 0.064 ± 0.068 | C -0.508 ± 0.33 | M 0.369 ± 0.1 | A -0.191 ± 0.076 | K 0.325 ± 0.034 | I 0.115 ± 0.17 | N 0.585 ± 0.097 | E 0.408 ± 0.082 | H 0.126 ± 0.12 | L 0.105 ± 0.068 | Q 0.262 ± 0.04 | G 0.129 ± 0.055
V9: P -0.538 ± 0.15 | G -0.167 ± 0.037 | S -0.093 ± 0.056 | W -0.24 ± 0.07 | Y -0.362 ± 0.14 | L -0.075 ± 0.046 | E -0.255 ± 0.09 | F 0.049 ± 0.086 | T 0.123 ± 0.033 | C 0.084 ± 0.09 | A -0.187 ± 0.045 | M 0.228 ± 0.08 | N 0.21 ± 0.11 | R 0.025 ± 0.044 | I 0.132 ± 0.075 | D 0.486 ± 0.089 | Q -0.097 ± 0.054 | H -0.068 ± 0.095 | K 0.022 ± 0.042
I8: P -0.282 ± 0.098 | L 0.165 ± 0.035 | G 0.037 ± 0.041 | T 0.021 ± 0.034 | W 0.001 ± 0.032 | D -0.164 ± 0.095 | A -0.1 ± 0.058 | R 0.06 ± 0.04 | E -0.096 ± 0.062 | V 0.201 ± 0.038 | C 0.105 ± 0.067 | K 0.03 ± 0.034 | N 0.112 ± 0.075 | Y -0.108 ± 0.092 | F -0.021 ± 0.086 | M 0.179 ± 0.096 | Q -0.056 ± 0.065
P11: M -0.374 ± 0.049 | S -0.453 ± 0.11 | D -0.156 ± 0.06 | K -0.281 ± 0.055 | T -0.682 ± 0.13 | C -0.694 ± 0.11 | Y -0.666 ± 0.18 | V -0.689 ± 0.11 | L -0.279 ± 0.054 | A -0.388 ± 0.069 | I -0.84 ± 0.39 | F -0.43 ± 0.064 | N -0.371 ± 0.076 | W -0.811 ± 0.12 | Q -0.186 ± 0.084 | E -0.5 ± 0.069
W14: S -0.925 ± 0.1 | C -1.02 ± 0.3 | Q -0.763 ± 0.24 | V -0.882 ± 0.097
